Assay results: publication PMC10875768, “Structural basis for antibody recognition of the proximal MUC16 ectodomain” (Journal of Ovarian Research, 2024)
Substitutions are numbered along the chain they refer to. Numbers in names are those of the source.

Tests used:
[1] = biological target: T1, MBP-MUC16^ecto (maltose binding protein fused to the 26-residue MUC16 ectodomain segment) (Homo sapiens); test: pull-down; MBP pull-down on amylose resin; MBP-tagged MUC16-target as bait (~20 µg), scFv as prey at 2-fold molar excess; 50 mM Tris-HCl pH 8.0, 400 mM NaCl, 1 mM EDTA, 1 mM DTT, 4 °C, 3 h; three washes; SDS-PAGE; conditions: both partners purified
T1 construct: linker between MBP and the MUC16 segment; Cloned into pMal-C5X (NEB); Only one of the two PDB entries holds this chain; also called MBP-fused MUC16-target; MBP-tagged MUC16-target (wt); source: E. coli BL21-RIL (DE3), purified (amylose resin, Superdex-75); not shown: MBP, N-terminal, kept
T1 chain: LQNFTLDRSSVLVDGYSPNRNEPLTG

[2] = biological target: T1, MBP-MUC16^ecto (maltose binding protein …); test: ITC; ITC200, 23 °C; scFv (12.8 µM) in the cell, MUC16 peptide (144 µM) or MBP-MUC16^ecto (130 µM) in the syringe; 50 mM Tris pH 8.0, 400 mM NaCl (the results say pH 7.4); average of three experiments; conditions: both partners purified
[3] = biological target: T2, commercially synthesized MUC16^ecto peptide (26 residues) (Homo sapiens); test: as above; conditions: both partners purified
T2 construct: also called synthesized MUC16-target; the synthesized peptide; source: synthetic peptide (commercially synthesized)
T2 chain: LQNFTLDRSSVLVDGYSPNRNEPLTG

[4] = biological target: T3, native glycosylated MUC16 expressed on cancer cells (OVCAR3, SKBR3) (human (endogenous in OVCAR3 and SKBR3), UniProt Q8WXI7, glycosylated (native)); test: immunostaining of cells or tissue; Alexa-conjugated scFv on fixed cells; Alexa-350-WGA as membrane marker; OVCAR3 and SKBR3 (MUC16-expressing), HEK293T/17 and SKOV3 as controls; conditions: one partner purified
T3 construct: MUC16 (mucin 16), as expressed on the surface of OVCAR3 and SKBR3 cells; also called Mucin 16; cellular MUC16; source: endogenous, on OVCAR3 and SKBR3 cells

B1: 4H11-scFv with VH double mutations S53A/D106A (scFv, V domains shown)
VH: EVKLQESGGGFVKPGGSLRVSCAASGFTFSSYAMSWVRLAPEMRLEWVATISAAGGYIFYSDSVQGRFTISRDNAKNSLHLQMGSLRSGDTAMYYCARQGFGNYGAYYAMDYWGQGTTVTVSS
VL: DIELTQSPSSLAVSAGERVTMNCKSSQSLLNSRTRKNQLAWYQQKPGQSPELLIYWASTRQSGVPDRFSGSGSGTDFTLTISSVQAEDVAVYYCQQSYNLLTFGPGTKLEIK
notes: as the VH of m1 (hVH2, E1-S123); linker (GGGGS)5; as the VL of m1 (hVL1, D1-R113 = scFv residues 149-261); Made by QuikChange mutagenesis of m1; also called scFv mutant S53A/D106A; source: ExpiCHO-S, transfected (same lentivector as the wild type)
binding result [1]: binds

B2: 4H11-scFv with VL double mutations Y246A/N247A (scFv, V domains shown)
VH: B1 VH with A53S, A106D
VL: B1 VL with Y98A, N99A
notes: as the VH of m1 (hVH2, E1-S123); linker (GGGGS)5; as the VL of m1 (hVL1, D1-R113) with the stated changes. numbers count on: the whole scFv (VL begins at D149); Made by QuikChange mutagenesis of m1; also called scFv mutant Y246A/N247A; source: ExpiCHO-S, transfected (same lentivector as the wild type)
binding result [1]: binds

B3: 4H11-scFv (H2L1), VH-linker (GGGGS)5-VL (scFv, V domains shown)
VH: B1 VH with A53S, A106D
VL: B1 VL
notes: humanized 4H11 VH (hVH2 of H2L1), E1-S123; linker (GGGGS)5, residues 124-148 of the scFv; humanized 4H11 VL (hVL1 of H2L1), D1-R113, which are residues 149-261 of the scFv; N-terminal signal peptide in the construct for secretion; also called h4H11-scFv; H2L1 4H11-scFv
Kd [2]: ~2 nM
Kd [3]: ~1.4 nM

B4: Alexa-fluorescence conjugated 4H11-scFv (scFv, V domains shown)
VH: B1 VH with A53S, A106D
VL: B1 VL
notes: as the VH of m1 (hVH2, E1-S123); linker (GGGGS)5; as the VL of m1 (hVL1, D1-R113 = scFv residues 149-261); also called Alexa-4H11-scFv; Alexa-labeled scFv; source: purified 4H11-scFv labeled with Alexa Fluor 488 carboxylic acid, further purified by Superdex-75
binding result [4]: binds
